Results: US20140170136A1 (NVIP, published 2014)

Key:
[1] = target: T1, complement C1q (from human serum) (human, UniProt P02745 23-245; P02746 28-253; P02747 29-245); assay: ELISA: antibody captured on NGF-coated plate, human serum 1/100, bound C1q detected with anti-C1q-HRP, OD450
T1 construct: mature; Native C1q in human serum diluted 1/100
Experimental: Protein A purified transfectant supernatants from Example 2 were incubated with plates coated with 0.1 ng/mL NGF to capture the antibodies. The plates were washed and then incubated with human serum and bound complement C1q was measured by binding of anti-human C1q polyclonal antibody HRP and developed as above. The binding of C1q to antigen-captured “eqN-HC2+eqN-kLC-1” was compared to a human anti-NGF MAb with human IgG1 Fc domain as positive control and an IgG4 variant as negative control.
Plates were coated with 100 μl/well of 5 μg/ml mouse NGF and blocked with 5% BSA/PBS. Coated wells were incubated for 1 hour at room temperature with cell culture supernatants, containing recombinant equine anti-NGF IgG, diluted in PBS/1% BSA (100 μl/well). The plates were washed and incubated for 1 hour at room temperature with 100 μl/well of human serum diluted 1/100 in veronal buffered saline containing 0.5 mM MgCl₂, 2 mM CaCl2, 0.05% Tween-20, 0.1% gelatin and 0.5% BSA. After washing, plates were incubated with 100 μl of a 1/800 dilution of sheep anti-C1q-HRP (Serotec) in PBS/1% BSA. After washing, plates were developed by the addition of 100 μl TMB substrate (Thermo Scientific). Development was stopped by the addition of 100 μl of 2N H₂SO₄ and absorbance read at 450 nm.

murine NGF = target: T2, murine NGF (mouse, UniProt P01139 122-241); assay: ELISA: CHO supernatant on NGF, goat anti-equine IgG-HRP, OD450, against mock supernatant
T2 construct: Coated on the ELISA plate; also called mouse NGF
Experimental: Equinised heavy and light chain cDNAs were transfected into CHO cells, the supernatants harvested and reacted in ELISA format with either equine or murine NGF. Following incubation and wash steps, the bound equine antibody was detected by reactivity with a goat-anti equine IgG specific polyclonal antibody linked to horseradish peroxidase (HRP) and developed using TMB. The optical density of the resulting product was measured at 450 nm and compared with that from mock empty vector transfected supernatant (denoted as “Mock” in FIG. 1). The results are shown in the graph of FIG. 1. Binding to mouse NGF is shown for the HC2 (IgG2 constant domain) equinised antibody (termed eqN-HC2+eqN-kLC-1). In the second part of the graph, binding of the eqN-HC2+eqN-kLC-1 antibody comprising the eqN-kLC-1 light chain and the eqN-HC2 (IgG2) constant chain to equine NGF is shown.

Protein A = target: T3, Protein A (UniProt P38507 37-327); assay: Protein A affinity chromatography of CHO supernatant; antibody in fractions measured by quantitative NGF ELISA
T3 construct: Column resin

T1 sequence (P02745 23-245, chain 1 of 3): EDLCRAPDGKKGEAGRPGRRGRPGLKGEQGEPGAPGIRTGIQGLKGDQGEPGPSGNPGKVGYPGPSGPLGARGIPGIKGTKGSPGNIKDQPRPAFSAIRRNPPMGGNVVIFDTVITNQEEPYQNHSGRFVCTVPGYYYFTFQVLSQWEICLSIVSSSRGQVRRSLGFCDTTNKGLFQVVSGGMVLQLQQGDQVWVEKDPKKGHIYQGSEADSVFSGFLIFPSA
T1 sequence (P02746 28-253, chain 2 of 3): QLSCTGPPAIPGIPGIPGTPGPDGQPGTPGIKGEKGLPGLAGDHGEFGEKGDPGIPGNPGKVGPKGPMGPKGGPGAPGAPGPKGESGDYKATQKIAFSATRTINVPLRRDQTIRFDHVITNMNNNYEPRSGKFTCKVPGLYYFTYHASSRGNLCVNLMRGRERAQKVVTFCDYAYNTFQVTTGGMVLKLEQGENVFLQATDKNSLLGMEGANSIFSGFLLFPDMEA
T1 sequence (P02747 29-245, chain 3 of 3): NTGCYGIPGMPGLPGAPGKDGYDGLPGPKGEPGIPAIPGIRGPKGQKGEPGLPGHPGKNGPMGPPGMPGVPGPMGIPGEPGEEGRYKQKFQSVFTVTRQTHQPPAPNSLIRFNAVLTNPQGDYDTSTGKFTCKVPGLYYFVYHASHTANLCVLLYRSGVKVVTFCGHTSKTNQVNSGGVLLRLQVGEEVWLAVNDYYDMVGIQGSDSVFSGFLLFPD
T2 sequence (P01139 122-241 limits assumed): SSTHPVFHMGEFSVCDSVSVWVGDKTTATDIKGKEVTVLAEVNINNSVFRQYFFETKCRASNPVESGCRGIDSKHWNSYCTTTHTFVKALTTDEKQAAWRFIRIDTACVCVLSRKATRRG

B1: eqN-HC2+eqN-kLC-1 (equinised αD11 anti-NGF antibody comprising the eqN-kLC-1 light chain and the eqN-HC2 (IgG2) heavy chain) (antibody)
heavy: QVQLKESGPGLVNPSQTLSLTCTVSGFSLTNNNVNWVRQAPGKGLEWVGGVWAGGATDYNSALKSRATITRDTSKSQVFLQMNSLTSEDTAVYYCARDGGYSSSTLYAMDAWGQGILVTVSSASTTAPKYFQLTPSCGITSDATVALGCLVSDYYPEPVTVSWNSGALTSGVHTFPSVLQSSGLYALSSMVTVPASTWTSETYICNVAHPASSTKVDKRIPPCVLSAEGVIPIPSVPKPQCPPYTHSKFLGGPSVFIFPPNPKDALMISRTPVVTCVVVNLSDQYPDVQFSWYVDNTEVHSAITKQREAQFNSTYRVVSVLPIQHQDWLSGKEFKCSVTNVGVPQPISRAISRGKGPSRVPQVYVLPPHPDELAKSKVSVTCLVKDFYPPDISVEWQSNRWPELEGKYSTTPAQLDGDGSYFLYSKLSLETSRWQQVESFTCAVMHEALHNHFTKTDISESLGK
light: DIVMTQSPASLSASLGETVTIECRASEDIYNALAWYQQKPGQSPKLLIYNTDTLHTGVPSRFSGSGSGTDYSLTINSLQSEDVASYFCQHYFHYPRTFGQGTKLELKRDDAKPSAFIFPPSSEELSSGSASVVCLVYGFYPSGATINWKVDGLAKTSSFHSSLTEQDSKDNTYSLSSTLTLPKADYEAHNVYACEVSHKTLSSPLVKSFKRQDC
notes: Tested as CHO transfectant supernatant or after Protein A purification; also called HC2 (IgG2 constant domain) equinised antibody; equinised HC2 antibody
binding result [1]: no binding
binding result (murine NGF): binds

B2: HC6 variant of equinised αD11 (equinised anti-NGF antibody with eqN-HC6 heavy chain and equine kappa light chain) (antibody)
heavy: QVQLKESGPGLVNPSQTLSLTCTVSGFSLTNNNVNWVRQAPGKGLEWVGGVWAGGATDYNSALKSRATITRDTSKSQVFLQMNSLTSEDTAVYYCARDGGYSSSTLYAMDAWGQGILVTVSSASTTAPKVFQLASHSAGTSDSTVALGCLVSSYFPEPVTVSWNSGALTSGVHTFPSVRQSSGLYSLSSMVTVPASSLKSQTYICNVAHPASSTKVDKRIVIKEPCCCPKCPGRPSVFIFPPNPKDTLMISRTPEVTCVVVDVSQENPDVKFNWYVDGVEAHTATTKAKEKQDNSTYRVVSVLPIQHQDWRRGKEFKCKVNNRALPAPVERTITKAKGELQDPKVYILAPHREEVTKNTVSVTCLVKDFYPPDINVEWQSNEEPEPEVKYSTTPAQLDGDGSYFLYSKLTVETDRWEQGESFTCVVMHEAIRHTYRQKSITNFPGK
light: B1 light
notes: also called HC6 antibody; type 6 (HC6) antibody
binding result (Protein A): no binding
